Reference: paper PMC12410373, “Sad from Proteobacteria is a Structurally Distinct ALDH3 Enzyme Specialized for the Oxidation of Steroidal Aldehydes” (Biochemistry, 2025)

Columns and labels:
[1] = molecular target: steroid aldehyde dehydrogenase (Sad) from Caldimonas tepidiphilia (Caldimonas tepidiphilia); assay: crystal structure; X-ray, 1.8 Å; sitting-drop vapor diffusion at 4 °C, 20 mg/mL Sad_(Ctepid), 40% MPD, 3% PEG 8000, 0.1 M sodium cacodylate pH 6.5, 10% glycerol; interface analysed with PISA
O=Cc1ccccc1 [2] = tested on: T1, O=Cc1ccccc1; assay: purified protein; format: biochemical, Pseudomonas putida; conditions: 1 mM NAD+, 100 mM HEPES pH 7.5, 25 °C
T1 construct: full-length, His tag (pET28a, NdeI/HindIII), E. coli BL21 LOBSTR

[3] = tested on: T2, C[C@H](C=O)[C@H]1CC[C@H]2[C@@H]3CCC4=CC(=O)CC[C@]4(C)[C@H]3CC[C@]12C; assay: purified protein; format: biochemical, Pseudomonas putida; conditions: 1 mM NAD+, 100 mM HEPES pH 7.5, 25 °C
T2 construct: full-length, His tag (pET28a, NdeI/HindIII), E. coli BL21 LOBSTR

O=Cc1ccccc1 [4] = assay: purified protein; conditions: 1 mM NAD+, 100 mM HEPES pH 7.5, 25 °C
[5] = tested on: C[C@H](C=O)[C@H]1CC[C@H]2[C@@H]3CCC4=CC(=O)CC[C@]4(C)[C@H]3CC[C@]12C; assay: purified protein; conditions: 1 mM NAD+, 100 mM HEPES pH 7.5, 25 °C

Substance “steroid aldehyde dehydrogenase (Sad) from Caldimonas tepidiphilia (enzyme)” has a stoichiometry N [1] of 2.
“PpBADH (Pseudomonas putida; F400A/L125T)” showed a Km (O=Cc1ccccc1 [2]) of 40.97 ± 2.58 µM, a kcat (O=Cc1ccccc1 [2]) of 0.037 ± 0.000756 s⁻¹ and a kcat/Km (O=Cc1ccccc1 [2]) of 903 ± 59.8 M⁻¹ s⁻¹. It also gave a Km [3] of 1.73 ± 0.0801 µM, a kcat [3] of 0.0431 ± 0.000719 s⁻¹ and a kcat/Km [3] of 24900 ± 1230 M⁻¹ s⁻¹.
Work on PpBADH (Pseudomonas putida; F400A) yielded a Km (O=Cc1ccccc1 [4]) of 59.5 ± 2.59 µM, a Km [5] of 4.35 ± 0.167 µM and a kcat [5] of 0.00284 ± 3.34e-05 s⁻¹. It also gave a kcat/Km [5] of 653 ± 75.1 M⁻¹ s⁻¹.
SadCtest (Comamonas testosteroni) was tested, and the Km [5] was 1.93 ± 0.118 µM and the kcat [5] was 3.57 ± 0.0818 s⁻¹.
For PpBADH (Pseudomonas putida; L125T), the Km (O=Cc1ccccc1 [4]) was 3.18 ± 0.216 µM, the Km [5] was 18.94 ± 1.07 µM and the kcat [5] was 0.0291 ± 0.000667 s⁻¹. It also gave a kcat/Km [5] of 1540 ± 36.8 M⁻¹ s⁻¹.
Work on PpBADH (Pseudomonas putida; Y121A) yielded a Km (O=Cc1ccccc1 [4]) of 700.4 ± 31.9 µM.
